# In patent US20250027114:
# Residue numbers refer to the chain shown, from its start.
# How the values were obtained:
# [1] = test system: T1, Nme2Cas9 (Nme2-ABE8e) (Neisseria meningitidis); assay: cell_activity; details: PAM N4YNC average, E. coli ABE-PPA; 14% on N4YND
# T1 sequence: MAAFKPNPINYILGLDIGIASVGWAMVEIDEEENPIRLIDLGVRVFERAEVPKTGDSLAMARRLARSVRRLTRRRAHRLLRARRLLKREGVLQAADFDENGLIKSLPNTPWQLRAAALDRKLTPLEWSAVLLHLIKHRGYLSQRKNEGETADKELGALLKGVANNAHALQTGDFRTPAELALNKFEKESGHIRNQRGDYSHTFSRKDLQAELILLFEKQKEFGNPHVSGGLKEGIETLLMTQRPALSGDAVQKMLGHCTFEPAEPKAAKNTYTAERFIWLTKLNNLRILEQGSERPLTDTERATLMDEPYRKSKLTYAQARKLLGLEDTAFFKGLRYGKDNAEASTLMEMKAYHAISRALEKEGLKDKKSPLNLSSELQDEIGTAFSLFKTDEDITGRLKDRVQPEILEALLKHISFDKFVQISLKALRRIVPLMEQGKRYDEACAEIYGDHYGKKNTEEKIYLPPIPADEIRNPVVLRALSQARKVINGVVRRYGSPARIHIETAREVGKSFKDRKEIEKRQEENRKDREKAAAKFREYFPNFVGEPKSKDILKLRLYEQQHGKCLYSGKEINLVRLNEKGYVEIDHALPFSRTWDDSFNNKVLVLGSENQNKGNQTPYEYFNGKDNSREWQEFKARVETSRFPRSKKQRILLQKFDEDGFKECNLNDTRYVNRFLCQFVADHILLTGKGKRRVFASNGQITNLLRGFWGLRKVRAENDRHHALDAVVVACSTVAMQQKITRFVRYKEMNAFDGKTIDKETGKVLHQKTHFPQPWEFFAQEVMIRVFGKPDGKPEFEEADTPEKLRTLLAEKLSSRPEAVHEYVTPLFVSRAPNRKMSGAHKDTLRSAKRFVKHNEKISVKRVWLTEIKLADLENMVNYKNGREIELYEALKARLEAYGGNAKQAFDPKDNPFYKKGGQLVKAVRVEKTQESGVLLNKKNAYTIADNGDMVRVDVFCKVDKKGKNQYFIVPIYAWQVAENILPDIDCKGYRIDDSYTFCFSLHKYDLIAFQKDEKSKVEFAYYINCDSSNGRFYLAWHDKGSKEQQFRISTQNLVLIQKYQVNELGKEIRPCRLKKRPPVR
# [2] = test system: T2, E1-2-ABE8e (Neisseria meningitidis); assay: cell_activity; details: PAM N4YNC average, E. coli ABE-PPA; 14% on N4YND
# T2 sequence: T1 sequence with Y441C, K581R, T808I, D844G, I1025S, R1033K, S1043R, L1075M
sequence,measurement,setting,value
AUGGCCCAGACUGAGCACGUGAGGUUGUAGCUCCCUUUCUCAUUUCGGAAACGAAAUGAGAACCGUUGCUACAAUAAGGCCGUCUGAAAAGAUGUGCCGCAACGCUCUGCCCCUUAAAGCUUCUGCUUUAAGGGGCAUCGUUUA / ATGGCCCAGACTGAGCACGTGA / TCACGTGCTCAGTCTGGGCCAT [ABE-PPA sgRNA ; ABE-PPA protospacer library target],activity (% A-to-G conversion),[1],18
same,activity (% A-to-G conversion),[2],29
